Experimental data taken from article PMC6131548, “Molecular basis for disassembly of an importin:ribosomal protein complex by the escortin Tsr2” (Nature Communications, 2018).
One block for each binder: values may come before it.

What was measured:
Conditions in all cases: both partners purified
[1] = target: T1, Tsr2 of the recombinant Tsr2:eS26 complex (XL-MS) (S. cerevisiae (yeast), UniProt Q06672 1-205); experiment: cross-linking; recombinant Tsr2:eS26 complex, 1 mg/ml in 50 mM HEPES; DSS, PDH/DMTMM or ADH/DMTMM, 37 °C; digestion, SEC, LC-MS/MS (XL-MS)
T1 construct: Tsr2, S. cerevisiae; source: recombinant Tsr2:eS26 complex, 1 mg/ml in 50 mM HEPES
T1 sequence (looked up): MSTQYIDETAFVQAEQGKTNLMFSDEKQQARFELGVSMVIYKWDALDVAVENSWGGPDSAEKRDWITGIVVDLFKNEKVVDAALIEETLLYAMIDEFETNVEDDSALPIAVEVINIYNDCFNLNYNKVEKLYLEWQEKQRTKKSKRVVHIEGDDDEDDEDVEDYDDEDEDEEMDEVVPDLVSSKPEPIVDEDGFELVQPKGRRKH

Tsr2-N (NMR) = target: T2, Tsr2-N (NMR) (S. cerevisiae (yeast), UniProt Q06672 1-152); experiment: NMR titration; stepwise titration of the unlabeled component to the labeled one (Tsr2-N, ESS2 peptide), followed by 2D 15N,1H-HSQC; 293.15 K, NMR buffer
T2 construct: Used unlabeled or 13C,15N-labeled; also called N-terminal domain of Tsr2; source: E. coli BL21 (DE3) CodonPlus-RIL, purified (HisTrap, TEV, Superdex 75); not shown: (His)6-tagged GB1 domain, N-terminal, cleaved
T2 sequence (looked up): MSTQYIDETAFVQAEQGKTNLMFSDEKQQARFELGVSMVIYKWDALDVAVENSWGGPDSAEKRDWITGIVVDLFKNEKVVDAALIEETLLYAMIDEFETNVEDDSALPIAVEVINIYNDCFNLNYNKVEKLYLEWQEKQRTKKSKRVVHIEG

hTsr2 (ITC) = target: T3, hTsr2 (ITC) (human, UniProt Q969E8 1-191); experiment: ITC; VP-ITC; 20–40 µM Tsr2 variant in the cell, 400–800 µM ESS2 peptide in the syringe; 25 °C, 20 mM NaPi pH 7.1, 1 mM DTT, 10 µM EDTA
T3 construct: human Tsr2; probably made like the NMR constructs; also called WT hTsr2; human Tsr2; source: E. coli BL21
T3 sequence (looked up): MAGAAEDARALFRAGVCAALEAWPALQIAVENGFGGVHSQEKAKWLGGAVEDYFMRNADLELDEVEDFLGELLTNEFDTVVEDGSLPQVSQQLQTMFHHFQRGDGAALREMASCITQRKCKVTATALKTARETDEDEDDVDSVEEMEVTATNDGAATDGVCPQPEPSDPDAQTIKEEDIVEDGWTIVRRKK

hTsr2E64G (ITC) = target: T4, hTsr2E64G (ITC) (human, UniProt Q969E8 1-191, E64G); experiment: as above
T4 construct: human Tsr2 with the Diamond-Blackfan anemia-linked mutation E64G; also called E64G-DBA variant; hTsr2E64G mutant; source: E. coli BL21
T4 sequence (looked up): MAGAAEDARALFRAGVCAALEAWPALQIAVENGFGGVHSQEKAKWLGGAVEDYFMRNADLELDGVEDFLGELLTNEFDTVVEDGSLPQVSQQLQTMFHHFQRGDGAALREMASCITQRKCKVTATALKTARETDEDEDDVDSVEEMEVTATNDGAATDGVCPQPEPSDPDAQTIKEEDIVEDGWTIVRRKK

binding result [1]: binds
B1: eS26 of the recombinant Tsr2:eS26 complex (XL-MS) (natural protein)
chain: not shown
notes: ribosomal protein eS26 (Rps26A), S. cerevisiae; source: recombinant Tsr2:eS26 complex, 1 mg/ml in 50 mM HEPES

binding result (Tsr2-N (NMR)): binds
B2: ESS2 peptide (peptide, UniProt P39938 100-119, looked up)
peptide: RPRFNRENKVSPADAAKKAL
notes: eukaryotic-specific segment 2 of eS26 (Rps26A), S. cerevisiae, residues 100-119 as deposited; ESS2 is defined as 99-119 in the results, the deposited peptide as 100-119; also called eS26-ESS2; S26A(100-119); source: E. coli BL21 (DE3) CodonPlus-RIL, cleaved from (His)6-GB1 by TEV, purified by reverse-phase HPLC (C8); not shown: (His)6-tagged GB1 domain, N-terminal, cleaved

Kd (hTsr2 (ITC)): 2 µM | Kd (hTsr2E64G (ITC)): 90 µM
B3: human ESS2 peptide (peptide)
chain: RFRPAGAAPRPPPKPM
modifications: Human limits are not printed. They are taken by ungapped alignment to the yeast ESS2 construct in PDB 6G04 (eS26 residues 100-119; the text defines ESS2 as 99-119), running to the human C-terminus. …
